From IntAct's records for PubMed 31515488

B1: Low-density lipoprotein receptor class A domain-containing protein 1 (Homo sapiens), Q5T700 (parent)
chain: MNKVFPQGENGYTAAESKAHPGGEAGGGHLCCSRRGACLSASLLLLLATVAALIALVTILGLPSCTPGAQACITLTNRTGFLCHDQRSCIPASGVCDGVRTCTHGEDEDESLCRDVPQSLPHFLVAHCGDPASWIYSDQKCDGTNNCGDCSDELSPVTVCPPCGPGWWRCPSTFFKYCDCIPRHLCRDHVQHCSDWSDEYACPGP
B2: E3 ubiquitin-protein ligase TRIM39 (Homo sapiens), Q9HCM9 (parent)
chain: MAETSLLEAGASAASTAAALENLQVEASCSVCLEYLKEPVIIECGHNFCKACITRWWEDLERDFPCPVCRKTSRYRSLRPNRQLGSMVEIAKQLQAVKRKIRDESLCPQHHEALSLFCYEDQEAVCLICAISHTHRAHTVVPLDDATQEYKEKLQKCLEPLEQKLQEITRCKSSEEKKPGELKRLVESRRQQILREFEELHRRLDEEQQVLLSRLEEEEQDILQRLRENAAHLGDKRRDLAHLAAEVEGKCLQSGFEMLKDVKSTLEKNIPRKFGGSLSTICPRDHKALLGLVKEINRCEKVKTMEVTSVSIELEKNFSNFPRQYFALRKILKQLIADVTLDPETAHPNLVLSEDRKSVKFVETRLRDLPDTPRRFTFYPCVLATEGFTSGRHYWEVEVGDKTHWAVGVCRDSVSRKGELTPLPETGYWRVRLWNGDKYAATTTPFTPLHIKVKPKRVGIFLDYEAGTLSFYNVTDRSHIYTFTDTFTEKLWPLFYPGIRAGRKNAAPLTIRPPTDWE
B3: E3 ubiquitin-protein ligase MYLIP (Homo sapiens), Q8WY64 (parent)
chain: MLCYVTRPDAVLMEVEVEAKANGEDCLNQVCRRLGIIEVDYFGLQFTGSKGESLWLNLRNRISQQMDGLAPYRLKLRVKFFVEPHLILQEQTRHIFFLHIKEALLAGHLLCSPEQAVELSALLAQTKFGDYNQNTAKYNYEELCAKELSSATLNSIVAKHKELEGTSQASAEYQVLQIVSAMENYGIEWHSVRDSEGQKLLIGVGPEGISICKDDFSPINRIAYPVVQMATQSGKNVYLTVTKESGNSIVLLFKMISTRAASGLYRAITETHAFYRCDTVTSAVMMQYSRDLKGHLASLFLNENINLGKKYVFDIKRTSKEVYDHARRALYNAGVVDLVSRNNQSPSHSPLKSSESSMNCSSCEGLSCQQTRVLQEKLRKLKEAMLCMVCCEEEINSTFCPCGHTVCCESCAAQLQSCPVCRSRVEHVQHVYLPTHTSLLNLTVI
partner: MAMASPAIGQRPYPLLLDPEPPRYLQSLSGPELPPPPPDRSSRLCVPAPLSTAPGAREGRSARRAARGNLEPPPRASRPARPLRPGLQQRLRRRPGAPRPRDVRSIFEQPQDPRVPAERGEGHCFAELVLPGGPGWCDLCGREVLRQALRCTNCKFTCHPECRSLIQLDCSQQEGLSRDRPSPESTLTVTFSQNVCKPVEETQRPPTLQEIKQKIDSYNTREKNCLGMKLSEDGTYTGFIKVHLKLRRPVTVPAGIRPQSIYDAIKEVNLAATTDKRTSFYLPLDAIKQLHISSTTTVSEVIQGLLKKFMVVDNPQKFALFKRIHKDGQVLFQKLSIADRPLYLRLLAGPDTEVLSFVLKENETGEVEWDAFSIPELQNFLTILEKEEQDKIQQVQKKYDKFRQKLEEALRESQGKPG
B4: ADP-ribosylation factor-like protein 2-binding protein (Homo sapiens), Q9Y2Y0 (parent)
chain: MDALEGESFALSFSSASDAEFDAVVGYLEDIIMDDEFQLLQRNFMDKYYLEFEDTEENKLIYTPIFNEYISLVEKYIEEQLLQRIPEFNMAAFTTTLQHHKDEVAGDIFDMLLTFTDFLAFKEMFLDYRAEKEGRGLDLSSGLVVTSLCKSSSLPASQNNLRH
B5: Centrosomal protein POC5 (Homo sapiens), Q8NA72 (parent)
chain: MSSDEEKYSLPVVQNDSSRGSSVSSNLQEEYEELLHYAIVTPNIEPCASQSSHPKGELVPDVRISTIHDILHSQGNNSEVRETAIEVGKGCDFHISSHSKTDESSPVLSPRKPSHPVMDFFSSHLLADSSSPATNSSHTDAHEILVSDFLVSDENLQKMENVLDLWSSGLKTNIISELSKWRLNFIDWHRMEMRKEKEKHAAHLKQLCNQINELKELQKTFEISIGRKDEVISSLSHAIGKQKEKIELMRTFFHWRIGHVRARQDVYEGKLADQYYQRTLLKKVWKVWRSVVQKQWKDVVERACQARAEEVCIQISNDYEAKVAMLSGALENAKAEIQRMQHEKEHFEDSMKKAFMRGVCALNLEAMTIFQNRNDAGIDSTNNKKEEYGPGVQGKEHSAHLDPSAPPMPLPVTSPLLPSPPAAVGGASATAVPSAASMTSTRAASASSVHVPVSALGAGSAATAASEEMYVPRVVTSAQQKAGRTITARITGRCDFASKNRISSSLAIMGVSPPMSSVVVEKHHPVTVQTIPQATAAKYPRTIHPESSTSASRSLGTRSAHTQSLTSVHSIKVVD

Variants of: B1
Conditions: with tm190_human TMEM190, Q8WZ59
Chain of tm190_human TMEM190, Q8WZ59 (Q8WZ59 whole entry): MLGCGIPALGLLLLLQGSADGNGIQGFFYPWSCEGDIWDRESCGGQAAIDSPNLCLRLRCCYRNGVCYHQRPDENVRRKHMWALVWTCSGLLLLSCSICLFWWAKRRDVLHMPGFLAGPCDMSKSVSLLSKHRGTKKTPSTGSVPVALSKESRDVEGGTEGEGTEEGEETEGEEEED

| Variant | effect of a mutation on the interaction |
| --- | --- |
| E108K | with no effect |

Variants of: B1
Conditions: with tm218_human TMEM218, A2RU14
Chain of tm218_human TMEM218, A2RU14 (A2RU14 whole entry): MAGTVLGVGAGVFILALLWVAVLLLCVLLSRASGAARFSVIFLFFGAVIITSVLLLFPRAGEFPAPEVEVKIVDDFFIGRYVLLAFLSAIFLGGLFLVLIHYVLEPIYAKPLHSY

| Variant | effect of a mutation on the interaction |
| --- | --- |
| E108K | with no effect |

Variants of: B1
Conditions: with bni3l_human BNIP3L

| Variant | effect of a mutation on the interaction |
| --- | --- |
| E108K | with no effect |
| G105S | with no effect |

Variants of: B1
Conditions: with tm147_human TMEM147, Q9BVK8
Chain of tm147_human TMEM147, Q9BVK8 (Q9BVK8 whole entry): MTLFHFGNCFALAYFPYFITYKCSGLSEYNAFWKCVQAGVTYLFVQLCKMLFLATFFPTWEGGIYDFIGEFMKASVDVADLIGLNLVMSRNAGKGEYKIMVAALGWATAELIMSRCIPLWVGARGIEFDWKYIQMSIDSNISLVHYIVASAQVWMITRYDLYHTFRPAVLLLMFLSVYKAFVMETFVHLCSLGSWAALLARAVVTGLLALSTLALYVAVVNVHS

| Variant | effect of a mutation on the interaction |
| --- | --- |
| E108K | with no effect |
| G105S | with no effect |

Variants of: B1
Conditions: with mal_human MAL

| Variant | effect of a mutation on the interaction |
| --- | --- |
| E108K | with no effect |
| G105S | with no effect |

Variants of: B1
Conditions: with mall_human MALL

| Variant | effect of a mutation on the interaction |
| --- | --- |
| S42F | with no effect |

Variants of: B1
Conditions: with olfm4_human OLFM4, Q6UX06
Chain of olfm4_human OLFM4, Q6UX06 (Q6UX06 whole entry): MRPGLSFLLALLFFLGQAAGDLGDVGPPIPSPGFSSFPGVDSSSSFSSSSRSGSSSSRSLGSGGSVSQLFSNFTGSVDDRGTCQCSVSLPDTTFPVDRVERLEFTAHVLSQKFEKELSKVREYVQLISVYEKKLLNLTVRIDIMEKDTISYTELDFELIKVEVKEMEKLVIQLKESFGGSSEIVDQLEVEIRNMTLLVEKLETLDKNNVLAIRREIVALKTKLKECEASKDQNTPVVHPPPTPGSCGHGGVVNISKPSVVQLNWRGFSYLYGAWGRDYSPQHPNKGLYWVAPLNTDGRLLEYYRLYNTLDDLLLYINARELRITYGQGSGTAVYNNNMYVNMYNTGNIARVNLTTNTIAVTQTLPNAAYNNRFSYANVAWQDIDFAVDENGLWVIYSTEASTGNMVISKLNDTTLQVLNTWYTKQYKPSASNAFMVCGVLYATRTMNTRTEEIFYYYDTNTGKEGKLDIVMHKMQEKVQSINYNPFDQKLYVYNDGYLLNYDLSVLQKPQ

| Variant | effect of a mutation on the interaction |
| --- | --- |
| S42F | with no effect |

Variants of: B2
Conditions: with znf26_human ZNF26, P17031
Chain of znf26_human ZNF26, P17031 (P17031 whole entry): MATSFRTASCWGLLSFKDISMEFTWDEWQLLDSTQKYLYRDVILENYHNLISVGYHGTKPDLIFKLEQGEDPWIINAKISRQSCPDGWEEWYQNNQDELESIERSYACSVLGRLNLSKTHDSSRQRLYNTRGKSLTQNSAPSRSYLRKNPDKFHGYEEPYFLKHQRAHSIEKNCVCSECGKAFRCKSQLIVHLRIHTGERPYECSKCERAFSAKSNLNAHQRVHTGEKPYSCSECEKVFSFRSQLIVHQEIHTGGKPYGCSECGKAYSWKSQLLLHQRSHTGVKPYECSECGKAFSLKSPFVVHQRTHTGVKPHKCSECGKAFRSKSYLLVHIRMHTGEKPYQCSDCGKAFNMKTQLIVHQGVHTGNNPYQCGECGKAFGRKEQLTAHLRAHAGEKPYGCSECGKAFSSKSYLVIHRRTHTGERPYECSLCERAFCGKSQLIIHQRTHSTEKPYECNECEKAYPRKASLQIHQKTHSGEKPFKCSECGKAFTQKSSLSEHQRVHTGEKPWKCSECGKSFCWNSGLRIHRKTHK

| Variant | effect of a mutation on the interaction |
| --- | --- |
| L194S | disrupting interaction strength |

Variants of: B2
Conditions: with ccnc_human CCNC

| Variant | effect of a mutation on the interaction |
| --- | --- |
| L194S | disrupting interaction strength |

Variants of: B2
Conditions: with if4a2_human EIF4A2, Q14240
Chain of if4a2_human EIF4A2, Q14240 (Q14240 whole entry): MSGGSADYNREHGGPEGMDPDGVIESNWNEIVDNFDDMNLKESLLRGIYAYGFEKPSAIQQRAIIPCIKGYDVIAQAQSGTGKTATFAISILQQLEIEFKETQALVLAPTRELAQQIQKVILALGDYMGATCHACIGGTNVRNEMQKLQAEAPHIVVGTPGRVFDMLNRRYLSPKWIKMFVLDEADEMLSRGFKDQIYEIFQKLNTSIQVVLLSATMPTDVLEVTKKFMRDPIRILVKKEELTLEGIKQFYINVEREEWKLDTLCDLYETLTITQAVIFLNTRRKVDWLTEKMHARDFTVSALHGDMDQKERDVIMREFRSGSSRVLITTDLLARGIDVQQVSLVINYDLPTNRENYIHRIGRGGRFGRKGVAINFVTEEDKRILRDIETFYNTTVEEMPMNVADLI

| Variant | effect of a mutation on the interaction |
| --- | --- |
| L194S | disrupting interaction strength |

Variants of: B2
Conditions: with ub2e2_human UBE2E2, Q96LR5
Chain of ub2e2_human UBE2E2, Q96LR5 (Q96LR5 whole entry): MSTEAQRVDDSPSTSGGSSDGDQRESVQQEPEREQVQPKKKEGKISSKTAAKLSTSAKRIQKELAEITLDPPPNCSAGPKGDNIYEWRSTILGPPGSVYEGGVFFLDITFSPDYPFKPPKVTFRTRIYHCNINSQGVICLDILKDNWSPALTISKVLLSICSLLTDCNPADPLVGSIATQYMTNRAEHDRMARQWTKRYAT

| Variant | effect of a mutation on the interaction |
| --- | --- |
| L194S | disrupting interaction strength |

Variants of: B2
Conditions: with ub2d3_human UBE2D3, P61077
Chain of ub2d3_human UBE2D3, P61077 (P61077 whole entry): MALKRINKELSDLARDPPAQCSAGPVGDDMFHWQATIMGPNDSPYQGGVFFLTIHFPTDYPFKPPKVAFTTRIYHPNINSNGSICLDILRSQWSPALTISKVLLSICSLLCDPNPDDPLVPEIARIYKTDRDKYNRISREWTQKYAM

| Variant | effect of a mutation on the interaction |
| --- | --- |
| L194S | disrupting interaction strength |

Variants of: B3
Conditions: with rasf5_human RASSF5, Q8WWW0

| Variant | effect of a mutation on the interaction |
| --- | --- |
| N342S | with no effect |

Variants of: B4
Conditions: with arl2_human ARL2, P36404
Chain of arl2_human ARL2, P36404 (P36404 whole entry): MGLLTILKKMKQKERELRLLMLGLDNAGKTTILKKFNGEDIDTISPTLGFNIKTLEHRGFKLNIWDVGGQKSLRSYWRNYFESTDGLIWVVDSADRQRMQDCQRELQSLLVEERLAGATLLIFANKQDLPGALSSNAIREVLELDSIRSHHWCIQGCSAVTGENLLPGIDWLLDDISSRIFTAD

| Variant | effect of a mutation on the interaction |
| --- | --- |
| E87K | disrupting interaction strength |
| M45R | disrupting interaction strength |

Variants of: B5
Conditions: with cetn1_human CETN1, Q12798
Chain of cetn1_human CETN1, Q12798 (Q12798 whole entry): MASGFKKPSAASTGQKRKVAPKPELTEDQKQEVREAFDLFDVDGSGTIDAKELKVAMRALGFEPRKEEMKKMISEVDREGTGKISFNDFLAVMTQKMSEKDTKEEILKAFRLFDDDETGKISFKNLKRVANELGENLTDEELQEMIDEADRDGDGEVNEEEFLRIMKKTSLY

| Variant | effect of a mutation on the interaction |
| --- | --- |
| H36R | with no effect |
| I85T | with no effect |

Second part, the variant after the results:

| effect of a mutation on the interaction | Variant |
| --- | --- |
| with no effect | R302K |
| with no effect | D148N |
| with no effect | I175M |
| with no effect | A446T |

Variants of: B5
Conditions: with cetn2_human CETN2, P41208
Chain of cetn2_human CETN2, P41208 (P41208 whole entry): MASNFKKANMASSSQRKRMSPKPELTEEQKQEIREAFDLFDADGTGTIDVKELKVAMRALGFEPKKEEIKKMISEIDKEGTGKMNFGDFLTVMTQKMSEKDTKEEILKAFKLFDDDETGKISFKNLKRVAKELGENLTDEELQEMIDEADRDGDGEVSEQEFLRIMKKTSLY

| Variant | effect of a mutation on the interaction |
| --- | --- |
| H36R | with no effect |
